Laboratory results published in the DeepSol protein solubility set.

Assay: soluble on expression in E. coli; label from the status in PepcDB or PDB records

| Sequence | soluble on expression in E. coli |
| --- | --- |
| MGSDKIHHHHHHMQSLYTSASTMAQLQKQLDTTGHNLANANTNGYKRRDSQFNELLVRNLNNQPAGLTPGSLTTPAGLRLGVGGYVANEATRFATGTFQNTGRKLDAALSNPHHFFGVIDADGVTKFTRDGNFELSPQANGQVLLTDDAGRSVINQANEPITFPDDATSIELNKDGNITGVLNGERRVLARIGVADIPNHGELTDVGGGLYTTAGQYQNATGNPLTVGTLETSNVDMATEMTNLTQIQRAYQFNSKALTTSDQMMGIVTSLK | not soluble |
| MAIQFELYKSPARKDEEDKELYHARVVNFQHIDTDYLAKEIQQATSLTEGDVKAVLESLSHFMGSRLREGERVHLDGIGYFQVKLNSLEPITSPKLKANQMKLKANIGFKADKKLRSSVSVVKVERSKLKLHSVPRSNEEIDRLLTAYFSNNQILTRSDFQGLCKLTLTTAARHIKRLKEEKKLQNINTRQSPVYVPMPGYYGKPEVEDTVK | not soluble |
| MSLDLQEKVRVAAEAVKHADAIVMTAGAGMGVDSGLPDFRGDTGFWKAYPPYQKLGITFVGAANPDHFERDPSFGWGFYGHRTNLYRATVPHAGFDILREWVQRYGLDYFVVTSNVDGQFQKAGFADDRILEVHGSIHHLQCTTPCTMAIWENRETIPVDEATMRAGHVPRCIHCGAVARPNILMFGDYGWVSDRSARQQRNFDEFLADTRGGRLVVVEMGAGTAIPTIRYLTEELGSRSEALAVRINPREPQIRAPHLSLPCGAREGVAAINAVLAEESEGHHHHHH | soluble |
| MSLLKINSQLFAIEDTLDDLAAAFLNLEVVRTYKAAQKAFLADKHLQKEISNFQHYNEDYNDQKTFIKYRPEVKQLRRKIFEKKRQLDLNEKVIALRRAEVDLQEVLAKIAQKIAESVSSDVFVDTGLPLAPHKPPHKKGYGNNIKEREGHHHHHH | soluble |
| MKAMHVAQPAVVLASSRGIASFVCEYASPGKATEVRVTVLRQADSQVTEVCAATYMMGNELTFLDDSICTGTSSGNQVNLTIQGLRAMDTGLYICKVELMYPPPYYLGIGNGTQIYVIDPEPSPDSDLVPR | soluble |
| MSLQPALGVLVASSQPLDQYVVRHPDFFADASPEHARTAPDQPLILFDHIRCAAFELPFIASEPFGPIDPLVFLEVLAESEVIHQEGDRWEWIADSYPATAVSLRSVADGNFVVVDKSDGKQQIIAEVDYSAAALTLYEGAIHMVQSRPYQVERLDWAGRKAYVTRTHVDYYTDSIDYTKLKVLDRFDGGVAGRGDSHHGEVHVVRRVSGYKKIRYYTHENIGYGPVNLPDQELHTTAVWWQLPQATLGKAFEGHHHHHH | soluble |
| MDPVIKLVAHAQEMSMTIPRRQACMVYGKLNVTLKKGDVQEERDKRVTDGYVHIPEDMPQGRFDFGFTREDADVNIGTGQSTYELALDTAARRITGQVLFEQDIIAPGFGDWRPLIDFSCGDLVGVRIWGKELVLPVTSITRETTGWRAHVGGQLINDRRKIISENRKILADIESERRER | not soluble |
| MSSSPAVKGLTDEEQKTLEPVIKTYHQFEPDPTTCTSLITQRIHAPASVVWPLIRRFDNPERYKHFVKRCRLISGDGDVGSVREVTVISGLPASTSTERLEFVDDDHRVLSFRVVGGEHRLKNYKSVTSVNEFLNQDSGKVYTVVLESYTVDIPEGNTEEDTKMFVDTVVKLNLQKLGVAATSAPMHDDE | soluble |
| MGSDKIHHHHHHMMKMAEFIMVVGTSSNSGKTTITAGLCRILANKGYKVAPFKSQNMSLNSRVAKEDGEIAIAQYTQSLACRVEPSVHFNPILLKPKGNFISQVIVHGRPYKDMNYNEYRKNKDFFLKKIKESLEILDREYDYVIMEGAGSCCEINLLKDDIANLRIAELVNAKAILVADIDRGGVFASIYGTIKLLPENWRKLIKGIIINKFRGNVEVLKEGIEKIEELTGIPVLGIVPYDENLVLPEEDSQVLQSMRSFGNAKSGVEINVVRFSKISNFTDLDPLRYDAFIKFIDFDDDITGDILIFPGTRSSTKEAYYLKQHNFDEKVLEFLKDGGIVIGICGGYQVLGKELIDKEKKESDVGDIEGLKIFDAKTYFGNDKVVKNSCGFLEIDNKTFNVKGYEIHEGFTYSKEKPLIKIERGFGNCGNGFDGSIKKFGDGLAIGTYFHGIFENYEFRNYIINLIRKRKGLDEIYGDSYKDSIEKSLNYFAEVVERSVNLKPLGINAT | not soluble |
| KNKTIEVYVDRATLPTIQQMTQIINENSNNKKLISWSRYPINDETLLESINGSFFKNRPELIKSLDSMILTNEIKKVIINGNTLWAVDVVNIIKSIEALGKKTEIELNFYDDGSAEYVRLYDFSRLPESEQEYKISLSKDNIQSSINGTQPFDNSIENIYGFSQLYPTTYHMLRADIFETNLPLTSLKRVISNNIKQMKWDYFTTFNSQQKNKFYNFTGFNPEKIKEQYKASPHENFIFIGTNSGTATAEQQIDILTEAKKPDSPIITNSIQGLDLFFKGHPSATYNQQIIDAHNMIEIYNKIPFEALIMTDALPDAVGGMGSSVFFSLPNTVENKFIFYKSDTDIENNALIQVMIELNIVNRNDVKLISDLQ | soluble |
| SSQVPDVMVVGEPTLMGGEFGDEDERLITRLENTQFDAANGIDDEGGSGGHMGSGGTPEIPMCAGCDQHILDRFILKALDRHWHSKCLKCSDCHVPLAERCFSRGESVYCKDDFFKRFGTKCAACQLGIPPTQVVRRAQDFVYHLHCFACVVCKRQLATGDEFYLMEDSRLVCKADYETAKQ | soluble |
| MAHHHHHHMDIGELPDDQFPGAQYIPDLHGLGRERQALSCKVHEMKIPGQVSPYHVPEGEESSERETLYDENGLPIRTNSNDQEGDKKLWSWTDDGKLKLLCSQPIIPVSVVQGILRRDKIILIPQVEVTDFVVPKIYNQNIKHDVPKLDIKVECSNVEIPNVKYVEKEIIIPIITGYTHKFIPKWDVHEVPRPVVKYIGEQKIVEVEVPEIKYIDKIVEREVVVDTVEKRVPKIIEIPKYVDEVKYVWKPIEKIVYIQKLVPKFDVNLECPPPLIVPYPVQTVKQIPPVMVRKDVKFPDCDYTDFNSPYGSLPIPREYVDYYTSRQKAQKGIFSNCCESNCKNGEDHHGGETYYDVSPSSAMGVSEESLQNELNICNSSNPFVNTSADSILNKGGPRQALDAACM | not soluble |
| HSPKVSSQNRTRSFGHFPGPEFLDVEKTSFSQEQSCDSAGEGSERIHQDSESGDELSSSSTEQIRATTPPNQGRPDSPVYANLQELKISQSALPPLPGSPAIQINGEWETHKDSSGRCYYYNRGTQERTWKPPRWTRDASISKGDFQNPGDQEWLKHVDDQGRQYYYSADGSRSEWELPKYNASSQQQREIIKSRSLDRRLQEPIVLTKWRHSTIVLDTNDKESPTASKPCFPENESSPSSPKHQDTDQEKYGLLNVTKIAENGKKVRKNWLSSWAVLQGSSLLFTKTQGSSTSWFGSNQSKPEFTVDLKGATIEMASKDKSSKKNVFELKTRQGTELLIQSDNDTVINDWFKVLSSTINNQAVETDEGIEEEIPDSPGIEKHDKEKEQKDPKKLRSFKVSSIDSSEQKKTKKNLKKFLTRRPTLQAVREKGYIKDQVFGSNLANLCQRENGTVPKFVKLCIEHVEEHGLDIDGIYRVSGNLAVIQKLRFAVNHDEKLDLNDSKWEDIHVITGALKMFFRELPEPLFTFNHFNDFVNAIKQEPRQRVAAVKDLIRQLPKPNQDTMQILFRHLRRVIENGEKNRMTYQSIAIVFGPTLLKPEKETGNIAVHTVYQNQIVELILLELSSIFGR | soluble |
| MGSDKIHHHHHHMSNTQKVPVTILTGFLGSGKTTLLNRILSEEHGKKIAVIENEYGEVGIDQGLVINADEEVFEMSNGCICCTVRGDLIRVLGNLMKRRDKFDYVLVETTGLADPGPVAQTFFMDDEIREEFSLDGIVTLVDAAHIEQQLGRSDESSEQVAFADVLVLNKTDLVSDESLDNLESRLRDMNRMARVIRSKQADVSIDTVLNLSAFDLDQVLQRRPTFLEPEYPFEWTGVFSLEKGRYELTLEEGPDPTMSLVQLLDQGKDETALNTGAESCVRLYAEQEQLMNPGDLVPVGKHVNLQLQSEGTKSFFIDVDKARDIGLFTQHTAEEFNMKLTKVNTPSTDEIDNDQNISTISPIAERVWVAEHEHDDEVGSFAIEREGDVDPEKLNRWLSRLLSEKGVDIFRTKGFISYAGESKRIVFQGVHMLFTAQPDKEWGNEPRRNQLVFIGRNLDEAEMIKEFDKCLV | not soluble |
| MTENILRKSDEEIQKEITARVKALESMLIEQGILTTSMIDRMAEIYENEVGPHLGAKVVVKAWTDPEFKKRLLADGTEACKELGIGGLQGEDMMWVENTDEVHHVVVCTLCSCYPWPVLGLPPNWFKEPQYRSRVVREPRQLLKEEFGFEVPPSKEIKVWDSSSEMRFVVLPQRPAGTDGWSEEELATLVTRESMIGVEPAKAV | soluble |
| METTQKDELSSFLSVLPPVDFCCVYGSTLHPNNQDKSKMVDYILGVSDPIKWHSANLKMNSDHYASWMVHLGGARLITNVADKVGVGVHFNPFVNWNDRKLKYGVVRMHDLVQDILDWKRFYLSGRLQKPVHMLVDNLDIEDVNSVNKRAAISAALLLLPSKFTEEDLYAKICSLSYMGDLRMFFAEDTNKVNKIVKGQFDLFQSMYKPFLEECETKNLLRFSSAEASHTKLVQDSSLSATRSLVSSLPASVRSQMGKSLGEKKFVSETGRVMGEVCISSREEAAKCMEKVMRRRVMVSSGRQAVSGFLAAGAINATMYLSQKMRKAWNSRA | soluble |
| MSLTEYVHGYSEREALRLSEQAETLEKLLHHDTVYPPGAKVLEAGCGIGAQTVILAKNNPDAEITSIDISPESLEKARENTEKNGIKNVKFLQANIFSLPFEDSSFDHIFVCFVLEHLQSPEEALKSLKKVLKPGGTITVIEGDHGSCYFHPEGKKAIEAWNCLIRVQAYMKGNSLVGRQIYPLLQESGFEKIRVEPRMVYIDSSKPELVDGFILKTIIPMVEGVKEQSLKMQIIKEEEWEKGIEELHKTAEHGGTFCYTFFKGWGTKEGHHHHHH | soluble |
| LRSAARTLYTWTLPNEYELIDVREPHEIEHTPSGAHITLPQSMWNDTTAIQHALDNITTDNVVVVCASGIRSAAFIEQFAHLNPHLTFHNVPSGINELP | not soluble |
| MRGSHHHHHHTDPALRAKPENKLPVLDLISAEMKTVVNTLQPDLPPWPATGTIAEQRQYYTLERRFWNAGAPEMATRAYMVPTKYGQVETRLFCPQPDSPATLFYLHGGGFILGNLDTHDRIMRLLASYSQCTVIGIDYTLSPEARFPQAIEEIVAACCYFHQQAEDYQINMSRIGFAGDSAGAMLALASALWLRDKQIDCGKVAGVLLWYGLYGLRDSVTRRLLGGVWDGLTQQDLQMYEEAYLSNDADRESPYYCLFNNDLTREVPPCFIAGAEFDPLLDDSRLLYQTLAAHQQPCEFKLYPGTLHAFLHYSRMMKTADEALRDGAQFFTAQLGLCGR | soluble |
| MADDLGLDLGKKKKSKKVIKIDGDDAPVETGVEAVEDGLGELNLGAKKKKKTPKTAGEEVVEEKVPTLEIGIGAQNLIDAKGAWPDYTYEEALTLVYQVMKDKNPDFAGDKKKFAIKLPEVARAGSKKTAFSNFLEICRLMKRQDKHVLQFLLAELGTTGSIDGSNCLIVKGRWQQKQFESVLRKYIKEYVMCHTCKSPETQLTKDTRLFFLQCTNCGSRCSVTAIKSGFKAVVGKRAAIRRAEEATAGK | not soluble |
| METKSLICTACPRGCRLSVKIENENISVSGNKCPKGLSYGKTEAVCPMRILTSTIASSVEGFPRLPVKTSVEVPLKNFSEYMHLIRKLKADSSKMPGDIIVKNFAESGADLIAAGGSLLEHHHHHH | soluble |
| MTMDLRTGLAALALAAGLALPAAPALAEMSEITIARQPSIGHLPLMIMQERRLIETMAEAEGLGEVKVNYATFAGGSNMNDALLSNTIQFAAGGVPPLILLWSKTAGTSNEVKGVAAMNSMPLLMNVNREDIRSIEDFKPGDKIALPSVKVSVQAMVLQMAAAKIWGDENYGKLDPLTVSMSHPDGLAALLARQEVTAHFTASPAQDMALREPGVHTVLNSFDVMGGPVTFNVVWTTKAFHDDNPKLFDIFRRALAQAVEVVNEDPAEAVQVYLRQAGNATDPELLASILADPQVDYTVEPSGIDKYLDFMRRIGTVKDNGQPWEAMFFE | not soluble |
